This passage reports inhibition of VEGF stimulated endothelial cell migration (BRCEC microchemotaxis chamber), IC50 results from patent US20080293626A1, “Pigment epithelium-derived factor as a therapeutic agent for vascular leakage” (The Johns Hopkins University, priority 2003, published 2008).

The target in this experiment is PEDF receptor (unidentified cell surface receptor on bovine retinal capillary endothelial cells). Kind of experiment: cell-based or functional assay.

On to “Recombinant human pigment epithelium-derived factor (PEDF) (from UniProt P36955 20-418) (ligand)”, for which the inhibition of VEGF stimulated endothelial cell migration (BRCEC microchemotaxis chamber), IC50 is 0.5 nM.
